125 sequences from the supplement of paper PMC9112550, “Optimization of the antimicrobial peptide Bac7 by deep mutational scanning” (BMC Biology, 2022) can be followed below.
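Note: peptides expressed intracellularly from a pBAD plasmid library in pooled LB shake-flask culture, induced with 0.3% L-arabinose, DNA abundance read by NGS, three biological replicates, DESeq2 with apeglm shrinkage.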

The data set relates to Escherichia coli TOP10. Kind of data set: shrunken log2 fold change of peptide-encoding DNA abundance (4.5 h post-induction vs induction); higher = less antimicrobial activity (less host growth inhibition). As to conditions: time post-induction: 4.5 h; library: site-saturation at positions 5, 18, 19, 20.
For the sequence RRIRERPPRLPRPRPRPYFHPRP, the “shrunken log2 fold change” value was -0.996.
The same measure for RRIRNRPPRLPRPRPRPCPPPRP: -0.328; for RRIRMRPPRLPRPRPRPYLEPRP: -0.0515.
The figure for RRIRCRPPRLPRPRPRPNDRPRP is -0.299; for RRIRARPPRLPRPRPRPVILPRP it is -0.0803; for RRIRRRPPRLPRPRPRPMTGPRP it is 0.0638.
Turning to RRIRERPPRLPRPRPRPTFWPRP, the “shrunken log2 fold change” value was -0.0352.
For RRIRIRPPRLPRPRPRPVEGPRP, the “shrunken log2 fold change” value is -0.308.
For RRIRQRPPRLPRPRPRPPKMPRP, the “shrunken log2 fold change” value was -0.0821.
As to RRIRKRPPRLPRPRPRPETAPRP, the “shrunken log2 fold change” value is 1.21.
The figure for RRIRLRPPRLPRPRPRPFYNPRP is -0.584.
Turning to RRIRSRPPRLPRPRPRPDEKPRP, the “shrunken log2 fold change” value is -0.0769.
In the case of RRIRSRPPRLPRPRPRPDMHPRP, the “shrunken log2 fold change” value was -0.118.
In the case of RRIRMRPPRLPRPRPRPCTGPRP, the “shrunken log2 fold change” value was -0.0444.
For RRIRFRPPRLPRPRPRPWLDPRP, the “shrunken log2 fold change” value is -0.0286.
With RRIRHRPPRLPRPRPRPDCCPRP, the “shrunken log2 fold change” value was -0.0827.
RRIRRRPPRLPRPRPRPNWRPRP: the “shrunken log2 fold change” value came to 0.415.
On to RRIRTRPPRLPRPRPRPDYLPRP, for which the “shrunken log2 fold change” value is -1.61.
As for RRIRFRPPRLPRPRPRPRDFPRP, the “shrunken log2 fold change” value was -0.141.
Turning to RRIRKRPPRLPRPRPRPYSTPRP, the “shrunken log2 fold change” value was -0.0551.
The same measure for RRIRRRPPRLPRPRPRPYLFPRP: -0.305; for RRIRCRPPRLPRPRPRPRWRPRP: 0.442.
The same measure for RRIRYRPPRLPRPRPRPLMMPRP: -0.692; for RRIRCRPPRLPRPRPRPVGWPRP: 0.64.
The figure for RRIRNRPPRLPRPRPRPQQKPRP is 0.0694; for RRIRSRPPRLPRPRPRPPQGPRP it is 0.39.
Take RRIRIRPPRLPRPRPRPFLEPRP: the “shrunken log2 fold change” value was -1.1.
RRIRLRPPRLPRPRPRPIISPRP: the “shrunken log2 fold change” value is -0.513.
The same measure for RRIRERPPRLPRPRPRPGTCPRP: 0.0777.
On to RRIRSRPPRLPRPRPRPKGHPRP, for which the “shrunken log2 fold change” value is -0.000921.
As to RRIRQRPPRLPRPRPRPWQPPRP, the “shrunken log2 fold change” value was -0.00999.
Regarding RRIRERPPRLPRPRPRPRNSPRP, the “shrunken log2 fold change” value is -0.639.
For RRIRQRPPRLPRPRPRPWTNPRP, the “shrunken log2 fold change” value was -0.00183.
Consider RRIRLRPPRLPRPRPRPTRGPRP, for which the “shrunken log2 fold change” value turned out to be 0.298.
With RRIRWRPPRLPRPRPRPCSWPRP, the “shrunken log2 fold change” value was determined as 0.0533.
For RRIRNRPPRLPRPRPRPQFVPRP, the “shrunken log2 fold change” value was -0.0944.
In the case of RRIRSRPPRLPRPRPRPLWVPRP, the “shrunken log2 fold change” value was 0.0823.
For RRIRRRPPRLPRPRPRPWVKPRP, the “shrunken log2 fold change” value was 0.0557.
The same measure for RRIRMRPPRLPRPRPRPIAYPRP: 0.0419.
For the sequence RRIRCRPPRLPRPRPRPHHSPRP, the “shrunken log2 fold change” value is -0.201.
On to RRIRSRPPRLPRPRPRPYWHPRP, for which the “shrunken log2 fold change” value is -0.783.
The same measure for RRIRERPPRLPRPRPRPVGLPRP: 0.147.
For RRIRSRPPRLPRPRPRPYKIPRP, the “shrunken log2 fold change” value is -0.846.
RRIRQRPPRLPRPRPRPNACPRP: the “shrunken log2 fold change” value was -0.000684.
The figure for RRIRARPPRLPRPRPRPNFLPRP is 0.0215; for RRIRIRPPRLPRPRPRPVIPPRP it is -0.358; for RRIRRRPPRLPRPRPRPVIQPRP it is 0.177.
For RRIRNRPPRLPRPRPRPRTPPRP, the “shrunken log2 fold change” value was found to be 0.261.
For RRIRVRPPRLPRPRPRPKWTPRP, the “shrunken log2 fold change” value amounted to 0.0514.
Regarding RRIRIRPPRLPRPRPRPWETPRP, the “shrunken log2 fold change” value is -0.0306.
The figure for RRIRIRPPRLPRPRPRPMATPRP is -0.0167; for RRIRARPPRLPRPRPRPEEMPRP it is 1.73.
As for RRIRERPPRLPRPRPRPFGSPRP, the “shrunken log2 fold change” value was 0.0942.
In the case of RRIRVRPPRLPRPRPRPPNGPRP, the “shrunken log2 fold change” value was 0.0958.
As to RRIRIRPPRLPRPRPRPAKAPRP, the “shrunken log2 fold change” value is -0.00404.
In the case of RRIRSRPPRLPRPRPRPLGIPRP, the “shrunken log2 fold change” value is -0.036.
On to RRIRWRPPRLPRPRPRPDERPRP, for which the “shrunken log2 fold change” value was -0.00133.
The same measure for RRIRCRPPRLPRPRPRPCCGPRP: -0.0934.
Regarding RRIRSRPPRLPRPRPRPCRFPRP, the “shrunken log2 fold change” value is -0.0924.
In the case of RRIRNRPPRLPRPRPRPIRPPRP, the “shrunken log2 fold change” value is -0.00213.
For RRIRKRPPRLPRPRPRPRTVPRP, the “shrunken log2 fold change” value was 0.244.
For the sequence RRIRWRPPRLPRPRPRPHHKPRP, the “shrunken log2 fold change” value was -0.23.
On to RRIRFRPPRLPRPRPRPNHRPRP, for which the “shrunken log2 fold change” value was -0.306.
For RRIRRRPPRLPRPRPRPSRHPRP, the “shrunken log2 fold change” value came to 0.319.
The same measure for RRIRPRPPRLPRPRPRPIMWPRP: 0.253; for RRIRRRPPRLPRPRPRPAFDPRP: 0.522.
Take RRIRCRPPRLPRPRPRPLARPRP: the “shrunken log2 fold change” value is 0.0547.
On to RRIRARPPRLPRPRPRPVIWPRP, for which the “shrunken log2 fold change” value amounted to 0.322.
For RRIRRRPPRLPRPRPRPASMPRP, the “shrunken log2 fold change” value stood at 0.0911.
The figure for RRIRNRPPRLPRPRPRPENQPRP is 0.216; for RRIRDRPPRLPRPRPRPQKSPRP it is -0.11; for RRIRMRPPRLPRPRPRPWQEPRP it is -0.107.
As for RRIRMRPPRLPRPRPRPRVNPRP, the “shrunken log2 fold change” value turned out to be 1.08.
The figure for RRIRRRPPRLPRPRPRPGRTPRP is 0.315; for RRIRARPPRLPRPRPRPCASPRP it is 0.158; for RRIRSRPPRLPRPRPRPDSLPRP it is 0.00187.
RRIRFRPPRLPRPRPRPTKDPRP: the “shrunken log2 fold change” value is -0.196.
The figure for RRIRPRPPRLPRPRPRPDAKPRP is 0.201; for RRIRLRPPRLPRPRPRPMAPPRP it is 0.19.
Turning to RRIRLRPPRLPRPRPRPRGGPRP, the “shrunken log2 fold change” value was 0.515.
On to RRIRQRPPRLPRPRPRPHMKPRP, for which the “shrunken log2 fold change” value is -0.0294.
Regarding RRIRMRPPRLPRPRPRPIDQPRP, the “shrunken log2 fold change” value turned out to be 0.0164.
Regarding RRIRCRPPRLPRPRPRPEVAPRP, the “shrunken log2 fold change” value came out at 0.293.
As to RRIRDRPPRLPRPRPRPNNWPRP, the “shrunken log2 fold change” value is -0.11.
As to RRIRSRPPRLPRPRPRPADSPRP, the “shrunken log2 fold change” value was -0.176.
The figure for RRIRVRPPRLPRPRPRPMLGPRP is -0.0049; for RRIRDRPPRLPRPRPRPNKYPRP it is -0.828; for RRIRRRPPRLPRPRPRPPTVPRP it is 0.24.
With RRIRKRPPRLPRPRPRPMSGPRP, the “shrunken log2 fold change” value was -0.211.
For RRIRSRPPRLPRPRPRPFQFPRP, the “shrunken log2 fold change” value is -0.157.
The same measure for RRIRHRPPRLPRPRPRPYGCPRP: -0.118; for RRIRYRPPRLPRPRPRPNAKPRP: -0.0394.
With RRIRHRPPRLPRPRPRPYMFPRP, the “shrunken log2 fold change” value is -0.319.
Take RRIRWRPPRLPRPRPRPHTCPRP: the “shrunken log2 fold change” value was -0.00188.
Take RRIRMRPPRLPRPRPRPCSGPRP: the “shrunken log2 fold change” value is -0.146.
In the case of RRIRIRPPRLPRPRPRPHRNPRP, the “shrunken log2 fold change” value is -0.846.
Regarding RRIRHRPPRLPRPRPRPFSYPRP, the “shrunken log2 fold change” value is -0.28.
RRIRVRPPRLPRPRPRPQPQPRP: the “shrunken log2 fold change” value stood at 0.302.
The same measure for RRIRIRPPRLPRPRPRPTPHPRP: 0.788; for RRIRFRPPRLPRPRPRPCDLPRP: -0.142; for RRIRCRPPRLPRPRPRPHCAPRP: -0.254.
On to RRIRERPPRLPRPRPRPPKRPRP, for which the “shrunken log2 fold change” value is 0.259.
With RRIRARPPRLPRPRPRPTFGPRP, the “shrunken log2 fold change” value stood at 0.416.
The figure for RRIRDRPPRLPRPRPRPHTTPRP is -0.117; for RRIRARPPRLPRPRPRPVIDPRP it is -0.066.
For RRIRDRPPRLPRPRPRPNKEPRP, the “shrunken log2 fold change” value is 0.0313.
As for RRIRWRPPRLPRPRPRPERCPRP, the “shrunken log2 fold change” value stood at 0.449.
RRIRQRPPRLPRPRPRPWQHPRP: the “shrunken log2 fold change” value was -0.0358.
RRIRCRPPRLPRPRPRPKREPRP: the “shrunken log2 fold change” value was 0.636.
On to RRIRHRPPRLPRPRPRPAALPRP, for which the “shrunken log2 fold change” value was -0.0796.
As for RRIRCRPPRLPRPRPRPLEMPRP, the “shrunken log2 fold change” value is -0.249.
The same measure for RRIRGRPPRLPRPRPRPKCSPRP: 0.704; for RRIRTRPPRLPRPRPRPCLCPRP: -0.29; for RRIRGRPPRLPRPRPRPDTWPRP: 0.465.
For the sequence RRIRPRPPRLPRPRPRPTSIPRP, the “shrunken log2 fold change” value was -0.375.
For RRIRARPPRLPRPRPRPNMYPRP, the “shrunken log2 fold change” value is -0.38.
Regarding RRIRNRPPRLPRPRPRPESWPRP, the “shrunken log2 fold change” value stood at 0.362.
For the sequence RRIRSRPPRLPRPRPRPSYDPRP, the “shrunken log2 fold change” value was -0.609.
Take RRIRWRPPRLPRPRPRPQTIPRP: the “shrunken log2 fold change” value is 0.106.
For the sequence RRIRHRPPRLPRPRPRPLATPRP, the “shrunken log2 fold change” value is -0.0931.
On to RRIRSRPPRLPRPRPRPTRAPRP, for which the “shrunken log2 fold change” value was determined as 0.738.
Consider RRIRVRPPRLPRPRPRPMNLPRP, for which the “shrunken log2 fold change” value was -0.0749.
The figure for RRIRPRPPRLPRPRPRPCHWPRP is 0.0406; for RRIRRRPPRLPRPRPRPYATPRP it is 0.418.
The same measure for RRIRIRPPRLPRPRPRPMFCPRP: -0.345.
